Test results reported in patent publication US20210347868A1 (published 2021).

How the values were obtained:
[1] = molecular target: T1, biotinylated alpha-synuclein peptide, residues 111-140 (human, biotinylated (position not given)); test: Octet biolayer interferometry, biotinylated peptide on streptavidin biosensor
T1 construct: also called syn111-140

[2] = molecular target: T2, biotinylated alpha-synuclein peptide, residues 121-140 (human, biotinylated (position not given)); test: Octet biolayer interferometry; table of peptide regions bound by anti-synuclein mAbs
T2 construct: also called syn121-140

[3] = molecular target: full-length (140 amino acid) human alpha-synuclein with C-terminal AviTag, biotinylated, his-tag removed by … (human, UniProt P37840 1-140); test: isothermal titration calorimetry in PBS, antibody:synuclein (1:2) model; Kd only on the graph
Protocol: FIGS. 5A-5C show affinity binding of human anti-synuclein antibodies for full-length synuclein protein as determined by isothermal titration calorimetry (ITC). […] The thermodynamic parameters and the equilibrium dissociation constants, Kd, were determined upon fitting the ITC data to a model assuming a single set of binding sites corresponding to an antibody:synuclein (1:2) binding model. Continuous lines represent the best fit of experimental data assuming a single set of binding sites. Experiments were performed in PBS. Equilibrium dissociation constants (Kd) are shown on the individual graphs.
The affinities of antibodies for full length synuclein protein were determined in solution on a MicroCal Auto-iTC200 system (Malvern Panalystical; Malvern, United Kingdom). […] The thermodynamic parameters and the equilibrium dissociation constants, Kd, were determined upon fitting the ITC data to a model assuming a single set of binding sites corresponding to an antibody:synuclein (1:2) binding model (FIG. 5).

Row | binding result [1] | binding result [2] | binding result [3] | Binder
1 | binds | binds | binds | human anti-alpha-synuclein antibody 323.1 (hantiAsyn-323.1) (antibody, V domains shown) VH: EVQLLESGGGLVQPGGSLKLSCAASGFTFSASAMHWVRQTSDKRLEWVGRIRNKANNYATAYAASVKGRFTISRDDSKNTAYLQMNSLKTEDTAVYYCTRHLSLGGNSVDYWGQGTPVTVSS VL: DVVMTQSPLSSPVTLGQPASISCRASQSPVHSDGNTYLSWLQQRPGQPPRLLIYTISNRFPGVPDRFSGSGAGTDFTLRISRVEAEDVGVYYCMQGTQFPYTFGQGTKLEIK
2 | binds | – | binds | human anti-alpha-synuclein antibody 336.1 (hantiAsyn-336.1) (antibody, V domains shown) VH: EVQLVQSGGTLVQPGGSLRLSCAASGFTFSTYAISWVRQAPGRGLEWVSFITGDGSRILYADSVRGRFSISRDNSKNTLYLQMNSLRTDDTAMYYCVFNHYWGQGTLVTVSS VL: AIQLTQSPDSLAVSLGERATINCKASQSLLYSSNNRNYLAWYQQKPGQPPKALIYWASTRESGVPDRFSGSGSGTDFTLTISSLQAEDVAVYYCHQYYTTHSFGQGTKLEIK
